In IntAct's records for PubMed 12393858:

Target: ipp2_human PPP1R2 (UniProt P41236)
Sequence (P41236 whole entry): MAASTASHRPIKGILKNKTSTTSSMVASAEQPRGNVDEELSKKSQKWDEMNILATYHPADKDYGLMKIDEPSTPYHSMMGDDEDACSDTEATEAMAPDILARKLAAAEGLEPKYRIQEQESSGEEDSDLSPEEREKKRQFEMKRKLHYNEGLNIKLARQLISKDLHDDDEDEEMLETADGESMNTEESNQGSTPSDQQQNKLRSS

- effect of a mutation on the interaction: disrupting interaction
Substance: Serine/threonine-protein kinase LMTK2 (Homo sapiens), Q8IWU2 V1356A;F1358A
